From patent US20240101668A1 (WUGEN, published 2024) come the findings set out here.

Experiment [1] addresses T1, huCD33-G69-Fc recombinant protein (human, UniProt P20138 18-259).
T1 construct: extracellular domain; also called CD33 R69G
The experiment can be described thus: BLI.
Description: Discovered scFvs were analyzed for binding to huCD33-R69-His or huCD33-G69-Fc recombinant proteins (for anti-CD33 scFvs; for CLL-1 scFvs, huCLL1-K244-Avi-Tev-His or huCLL1-Q244-Avi-Tev-His were used; for FLT3, huFLT3-T227-His or huFLT3-M227-Fc were used) using BLI on a ForteBio Octet HTX instrument. Streptavidin-coated biosensors were loaded with biotinylated anti-V5 tag monoclonal antibody for 5 min and were then quenched and blocked with 20 μM amine-PEG2-Biotin for 5 min. scFvs were captured on biosensors from scFv clone periplasmic extracts. huCD33 (or huCLL-1, or huFLT3) proteins were then associated with the captured scFvs for 2 minutes, followed by dissociation with buffer (1×HBST [10 mM HEPES pH 7.4, 150 mM NaCl, 0.05% Tween-20], 1 g/L BSA) for 5 minutes. […] Data was fitted with 1:1 Langmuir equation and off-rate values were reported.

Experiment [2] addresses T2, huCD33-R69 stably expressed on Jurkat cells (human, UniProt P20138 18-364).
T2 construct: whole, on cells; >200,000 receptors per cell; also called CD33 WT; CD33^ARG69
The experiment can be described thus: FACS on cells.

The target in experiment [3] is T3, huCD33-G69 stably expressed on Jurkat cells (human, UniProt P20138 18-364).
T3 construct: whole, on cells; >200,000 receptors per cell; also called CD33 Mutant; CD33 R69G
The experiment can be described thus: FACS on cells.

For experiment [4], the target named is T4, huFLT3-M227 stably expressed on Ramos cells (human, UniProt P36888 27-993).
T4 construct: whole, on cells; also called FLT3 Mutant
The experiment can be described thus: FACS on cells.
Description: (§1) For FLT3, Ramos cells were engineered to stably express either the huFLT3-T227 or huFLT3-M227 variant at >200,000 receptors per cell. Parental, huFLT3-T227, and huFLT3-M227 Ramos cell lines were stained with differing levels of CellTrace Violet Cell Proliferation Kit (ThermoFisher, cat. #C34557) to barcode each cell line. Barcoded Ramos cell lines were fixed with paraformaldehyde and incubated with myc-labeled scFv periplasmic extracts and a secondary anti-myc PE-conjugated monoclonal antibody. Appropriate positive and negative controls were used. Stained cells were analyzed by flow cytometry (CytoFLEX, Beckman Coulter, Inc.) and binding was assessed by change in PE mean fluorescence intensity (MFI) of the barcoded cell populations.

Experiment [5] addresses T5, huFLT3-T227 stably expressed on Ramos cells (human, UniProt P36888 27-993).
T5 construct: whole, on cells; also called FLT3 WT
The experiment can be described thus: FACS on cells.
Description: as §1
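For result in this document: biolayer interferometry: scFvs captured from periplasmic extracts on anti-V5-loaded streptavidin biosensors, antigen association for 2 min, buffer dissociation for 5 min, 1:1 Langmuir fit giving off-rate.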

T2 sequence (P20138 18-364): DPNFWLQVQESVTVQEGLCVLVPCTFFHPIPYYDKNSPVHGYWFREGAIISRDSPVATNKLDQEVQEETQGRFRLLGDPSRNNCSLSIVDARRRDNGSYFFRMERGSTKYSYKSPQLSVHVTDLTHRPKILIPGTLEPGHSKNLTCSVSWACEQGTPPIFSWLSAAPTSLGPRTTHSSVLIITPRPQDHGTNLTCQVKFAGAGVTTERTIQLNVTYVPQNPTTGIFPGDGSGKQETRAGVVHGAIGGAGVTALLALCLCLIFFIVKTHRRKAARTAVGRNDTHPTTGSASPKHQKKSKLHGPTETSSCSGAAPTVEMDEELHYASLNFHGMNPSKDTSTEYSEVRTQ
T3 sequence (P20138 18-364 R69G): as the sequence (P20138 18-364) above, with R52G counted along it
T1 sequence (P20138 18-259 R69G): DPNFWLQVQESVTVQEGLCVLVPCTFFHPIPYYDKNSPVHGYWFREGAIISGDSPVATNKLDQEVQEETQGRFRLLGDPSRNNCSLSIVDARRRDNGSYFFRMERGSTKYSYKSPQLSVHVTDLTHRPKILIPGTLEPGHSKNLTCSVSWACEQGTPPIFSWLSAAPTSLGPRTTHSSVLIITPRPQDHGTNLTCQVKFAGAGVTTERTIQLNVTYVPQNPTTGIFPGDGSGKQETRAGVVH

B1: Polypeptide No. 135 (scFv, V domains shown)
VH: QVQLVQSGAEVKKPGASVKVSCKASGYSFTTYGITWVRQAPGQGLEWMGWINPNSGNAGYAQKFQGRVTMTRDTSTSTVYMELSSLRSEDTAVYYCASDLAGYSSGYFDLWGRGTLVTVSS
VL: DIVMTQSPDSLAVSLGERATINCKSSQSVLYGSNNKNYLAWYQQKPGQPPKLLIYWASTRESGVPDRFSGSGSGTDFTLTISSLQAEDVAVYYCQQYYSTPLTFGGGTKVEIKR
notes: scFv
Take B1: the binding result in experiment [1] is “binds”. The results for the “FACS geometric mean fold change over Jurkat parental” value (“FACS geometric mean fold change” below) in experiment [2] and in experiment [3] were 10 to 30 fold and more than 30 fold, respectively.

B2: Polypeptide No. 128 (scFv, V domains shown)
VH: QVQLVQSGAEVKKPGASVKVSCKASGYTFTNYYIHWVRQAPGQGLEWLGWTNPINGDTGSAQKFQGRVTMTRDTSTSTVYMELSSLRSEDTAVYYCAKEGQLAWADYYYYMDVWGKGTTVTVSS
VL: DIQMTQSPSSLSASVGDRVTITCRASQGISSALAWYQQKPGKAPKLLIYAASSLQSGVPSRFSGSGSGTDFTLTISSLQPEDFATYYCQQSYSTPLTFGGGTKVEIKR
notes: scFv
On to B2, for which the binding result in experiment [1] is reported as “binds”. The “FACS geometric mean fold change” value in experiment [2] and in experiment [3] was 10 to 30 fold throughout.

B3: Polypeptide No. 143 (scFv, V domains shown)
VH: QVQLVQSGAEVKKPGASVKVSCKASGYTFTGYYMHWVRQAPGQGLEWMGWMNANSGNTGFAQKFQGRVTMTRDTSTSTVYMELSSLRSEDTAVYYCARDSSSWLSGGGWFDPWGQGTLVTVSS
VL: DIQMTQSPSSLSASVGDRVTITCRASQSIGTYLSWYQQKPGKAPKLLIYAASSLQSGVPSRFSGSGSGTDFTLTISSLQPEDFATYYCQQSYSSPITFGQGTKLEIKR
notes: scFv
As to B3, the binding result in experiment [1] is recorded as “binds”. The “FACS geometric mean fold change” value in experiment [2] and in experiment [3] was 2 to 10 fold in each case.

B4: Polypeptide No. 207 (scFv, V domains shown)
VH: QVQLVQSGAEVKKPGASVKVSCKASGYTFTNYYMHWVRQAPGQGLEWMGWMNPNSGNTGYAQRFQGRVTMTRDTSTSTVYMELSSLRSEDTAVYYCAKSHYYYFYGMDVWGQGTTVTVSS
VL: DIQMTQSPSSLSASVGDRVTITCQASHDISKYLNWYQQKPGKAPKLLIYAASILQSGVPSRFSGSGSGTDFTLTISSLQPEDFATYYCQQSYSTPYTFGQGTKLEIKR
notes: scFv
With B4, the “FACS geometric mean fold change” value in experiment [4] and in experiment [5] was 10 to 30 fold each time.

B5: Polypeptide No. 139 (scFv, V domains shown)
VH: QVQLVQSGAEVKKPGASVKVSCKASGYTLSDHDINWVRQAPGQGLEWMGWMNPSTGNTGYAQKFQGRVTMTRDTSTSTVYMELSSLRSEDTAVYYCERDQLRFGAWFDPWGQGTLVTVSS
VL: DIQMTQSPSSLSASVGDRVTITCRASQGIRNYLAWYQQKPGKAPKLLIYAASSLQSGVPSRFSGSGSGTDFTLTISSLQPEDFATYYCQQSYSIPLTFGGGTKVEIKR
notes: scFv
Regarding B5, the binding result in experiment [1] was “binds”. For the same molecule, the “FACS geometric mean fold change” value in experiment [2] and in experiment [3] was more than 30 fold in each case.

B6: Polypeptide No. 140 (scFv, V domains shown)
VH: EVQLVESGGGLVKPGGSLRLSCAASGITVSSSWMHWVRQAPGKGLEWVSAIGTGGGTHYADSVKGRFTISRDDSKNTLYLQMNSLKTEDTAVYYCARDQGGQIDHWGQGTLVTVSS
VL: DIQMTQSPSSLSASVGDRVTITCRASQSISSWLAWYQQKPGKAPKLLIYDASTLQSGVPSRFSGSGSGTDFTLTISSLQPEDFATYYCQQSYSIPLTFGGGTKVEIKR
notes: scFv
With B6, the binding result in experiment [1] is on record as “binds”. The “FACS geometric mean fold change” value in experiment [2] and in experiment [3] was 2 to 10 fold each time.

B7: Polypeptide No. 134 (scFv, V domains shown)
VH: QVQLVQSGAEVKKPGASVKVSCKASGYTFDSYLLHWVRQAPGQGLEWMGMINPSGAGTTYAQKFQGRVTMTRDTSTSTVYMELSSLRSEDTAVYYCAKEGSIAAGYYFDSWGQGTLVTVSS
VL: DIQMTQSPSSLSASVGDRVTITCRASQSIDSWLAWYQQKPGKAPKLLIYAASSLQSGVPSRFSGSGSGTDFTLTISSLQPEDFATYYCQQSYTTPITFGGGTKVEIKR
notes: scFv
As to B7, in experiment [1], the binding result is listed as “binds”. The “FACS geometric mean fold change” value in experiment [2] and in experiment [3] was more than 30 fold in each case.

B8: Polypeptide No. 136 (scFv, V domains shown)
VH: QVQLVQSGAEVKKPGASVKVSCKASGDTLTNHFVHWVRQAPGQGLEWMGWMNPNSGNTGYAQKFQGRVTMTRDTSTSTVYMELSSLRSEDTAVYYCARDPQMGAVAGGFDYWGQGTLVTVSS
VL: DIQMTQSPSSLSASVGDRVTITCRASQRIGNWLAWYQQKPGKAPKLLIYAASSLQSGVPSRFSGSGSGTDFTLTISSLQPEDFATYYCQQSYSPPLTFGPGTKVDIKR
notes: scFv
In the case of B8, the binding result in experiment [1] was “binds”. The “FACS geometric mean fold change” value in experiment [2] and in experiment [3] was 10 to 30 fold throughout.

B9: Polypeptide No. 133 (scFv, V domains shown)
VH: EVQLLESGGGLVQPGGSLRLSCAASGFTFSSSWMHWVRQAPGKGLEWVSAISSSGDATYYADSVKGRFTISRDNSKNTLYLQMNSLRAEDTAVYYCAKFSDGGAGDSDYWGQGTLVTVSS
VL: DIQMTQSPSSLSASVGDRVTITCRASQGISSYLAWYQQKPGKAPKLLIYTASSLQSGVPSRFSGSGSGTDFTLTISSLQPEDFATYYCQQYDNLPITFGQGTRLEIKR
notes: scFv
Regarding B9, the binding result in experiment [1] is reported as “binds”. Moreover, the “FACS geometric mean fold change” value in experiment [2] and in experiment [3] was 2 to 10 fold throughout.

B10: Polypeptide No. 137 (scFv, V domains shown)
VH: QVQLVQSGAEVKKPGASVKVSCKASGYTFTDYYIHWVRQAPGQGLEWMGMVNPSGGSANYAQKFQGRVTMTRDTSTSTVYMELSSLRSEDTAVYYCAKDSAWQEPYYFDYWGQGTLVTVSS
VL: DIQMTQSPSSLSASVGDRVTITCRASQGISSYLAWYQQKPGKAPKLLIYDASNLDTGVPSRFSGSGSGTDFTLTISSLQPEDFATYYCQQSYSTPLTFGGGTKVEIKR
notes: scFv
In the case of B10, the binding result in experiment [1] was “binds”. The “FACS geometric mean fold change” value in experiment [2] and in experiment [3] was more than 30 fold in each case.

B11: Polypeptide No. 142 (scFv, V domains shown)
VH: EVQLLESGGGLVQPGGSLRLSCAASGFTFSSYWMHWVRQAPGKGLEWVAVISYDGSDKYYADSVKGRFTISRDNSKNTLYLQMNSLRAEDTAVYYCARGLGGTTGTADFDYWGQGTLVTVSS
VL: not shown
notes: scFv
For the molecule B11, in experiment [1], the binding result was “binds”. In addition, the “FACS geometric mean fold change” value in experiment [2] and in experiment [3] was 2 to 10 fold throughout.

B12: Polypeptide No. 132 (scFv, V domains shown)
VH: EVQLLESGGGLVQPGGSLRLSCAASGFTFNNYGMHWVRQAPGKGLEWVSAISGSGGSTYYADSVKGRFTISRDNSKNTLYLQMNSLRAEDTAVYYCAREYMQQPHGGMDVWGQGTTVTVSS
VL: EIVMTQSPATLSVSPGERATLSCRASQSVNSYLAWYQQKPGQAPRLLIYGASTRATGIPARFSGSGSGTEFTLTISSLQSEDFAVYYCQQYGSSPLSFGGGTKVEIKR
notes: scFv
For B12, the binding result in experiment [1] is on record as “binds”. Moreover, the “FACS geometric mean fold change” value was in the range of 2 to 10 fold in experiment [2] and 10 to 30 fold in experiment [3].

B13: Polypeptide No. 138 (scFv, V domains shown)
VH: QVQLVQSGAEVKKPGASVKVSCKASGYTFSSYDMHWVRQAPGQGLEWMGVINPGGGYTNYAQKFQGRVTMTRDTSTSTVYMELSSLRSEDTAVYYCARDEGWELLLDYWGQGTLVTVSS
VL: EIVMTQSPATLSVSPGERATLSCRASQSVGSNLAWYQQKPGQAPRLLIYGASTRATGIPARFSGSGSGTEFTLTISSLQSEDFAVYYCQQSHSLPPTFGQGTRLEIKR
notes: scFv
Consider B13, for which the binding result in experiment [1] is reported as “binds”. Moreover, the “FACS geometric mean fold change” value in experiment [2] and in experiment [3] was 10 to 30 fold throughout.

B14: Polypeptide No. 129 (scFv, V domains shown)
VH: EVQLVESGGGLVKPGGSLRLSCAASGFSLRNYWMHWVRQAPGKGLEWVSGISGSGGSTYYADSVKGRFTISRDDSKNTLYLQMNSLKTEDTAVYYCARDYTGVVDYWGQGTLVTVSS
VL: not shown
notes: scFv
Turning to B14, the binding result in experiment [1] was “binds”. Further, the “FACS geometric mean fold change” value in experiment [2] and in experiment [3] was 10 to 30 fold throughout.

B15: Polypeptide No. 131 (scFv, V domains shown)
VH: QVQLVQSGAEVKKPGASVKVSCKASGGTFSNYAINWVRQAPGQGLEWMGWINPNSGGTDSAQKFQGRVTMTRDTSTSTVYMELSSLRSEDTAVYYCARDSSLALSYGGNSEYYYGMDVWGQGTTVTVSS
VL: DIQMTQSPSSLSASVGDRVTITCQASQDISDHLNWYQQKPGKAPKLLIYGASTLQSGVPSRFSGSGSGTDFTLTISSLQPEDFATYYCQQAYSFPWTFGQGTKLEIKR
notes: scFv
In the case of B15, the binding result in experiment [1] is reported as “binds”. For the same molecule, the “FACS geometric mean fold change” value in experiment [2] was more than 30 fold; in experiment [3], 10 to 30 fold.

B16: Polypeptide No. 141 (scFv, V domains shown)
VH: QVQLVQSGAEVKKPGASVKVSCKASGGTFSSYAISWVRQAPGQGLEWMGVISPNGDTTVYAQKFQGRVTMTRDTSTSTVYMELSSLRSEDTAVYYCARDRGVAHSYYYGMDVWGQGTLVTVSS
VL: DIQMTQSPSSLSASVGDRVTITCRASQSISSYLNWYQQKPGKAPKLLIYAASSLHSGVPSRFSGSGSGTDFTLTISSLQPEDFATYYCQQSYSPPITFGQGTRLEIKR
notes: scFv
Regarding B16, the binding result in experiment [1] is “binds”. In addition, the “FACS geometric mean fold change” value in experiment [2] is 10 to 30 fold; in experiment [3], more than 30 fold.

B17: Polypeptide No. 130 (scFv, V domains shown)
VH: QVQLVQSGAEVKKPGASVKVSCKASGGTFSNYAISWVRQAPGQGLEWMAWMNPNSGNTGYAQKFQGRVTMTRDTSTSTVYMELSSLRSEDTAVYYCARDGFIGFGELFSAFDIWGQGTMVTVSS
VL: DIQMTQSPSSLSASVGDRVTITCRASQSIGTWLAWYQQKPGKAPKLLIYGATRLLSGVPSRFSGSGSGTDFTLTISSLQPEDFATYYCQQSYSTPPTFGQGTKLEIKR
notes: scFv
Consider B17, for which the binding result in experiment [1] is recorded as “binds”. Also, the “FACS geometric mean fold change” value in experiment [2] and in experiment [3] was 10 to 30 fold each time.
